How the values were obtained:
HLA-A*02:01 [1] = assay: IEDB peptide-MHC binding, cellular MHC/competitive/fluorescence; ≥ and ≤ were set here for values at or beyond the usual limits of such assays; conditions: source organism: Homo sapiens
HLA-B*27:05 [2] = assay: IEDB peptide-MHC binding, purified MHC/competitive/fluorescence; ≥ and ≤ were set here for values at or beyond the usual limits of such assays; conditions: source organism: hepatitis C virus genotype 1a
HLA-B*40:02 = assay: IEDB peptide-MHC binding, cellular MHC/competitive/fluorescence; ≥ and ≤ were set here for values at or beyond the usual limits of such assays; conditions: source organism: Homo sapiens
HLA-A*01:01 [3] = assay: IEDB peptide-MHC binding, purified MHC/direct/fluorescence; filed as Kd, often an IC50 or EC50 that approximates it; ≥ and ≤ were set here for values at or beyond the usual limits of such assays; conditions: source organism: Brucella abortus
HLA-A*02:01 [4] = assay: as above; conditions: source organism: Brucella abortus
HLA-A*02:03 [5] = assay: as above; conditions: source organism: Brucella suis 1330
HLA-A*02:11 = assay: as above; conditions: source organism: Brucella suis 1330
HLA-A*02:12 = assay: as above; conditions: source organism: Brucella suis 1330
HLA-A*02:19 = assay: as above; conditions: source organism: Brucella suis 1330
HLA-A*03:01 [6] = assay: as above; conditions: source organism: Brucella abortus
HLA-A*11:01 [7] = assay: as above; conditions: source organism: Brucella abortus
HLA-A*26:01 = assay: as above; conditions: source organism: Brucella suis 1330
HLA-A*31:01 [8] = assay: as above; conditions: source organism: Brucella abortus
HLA-A*69:01 [9] = assay: as above; conditions: source organism: Brucella abortus
HLA-B*07:02 = assay: as above; conditions: source organism: Brucella abortus
HLA-B*08:01 = assay: as above; conditions: source organism: Brucella suis 1330
HLA-B*15:01 [10] = assay: as above; conditions: source organism: Brucella abortus
HLA-B*27:05 [11] = assay: as above; conditions: source organism: Brucella abortus
HLA-B*40:01 [12] = assay: as above; conditions: source organism: Brucella abortus
HLA-B*44:02 = assay: as above; conditions: source organism: Brucella abortus
HLA-B*58:01 [13] = assay: as above; conditions: source organism: Brucella abortus
HLA-C*12:03 = assay: as above; conditions: source organism: Brucella abortus bv. 1 str. 9-941
HLA-A*01:01 [14] = assay: IEDB peptide-MHC binding, purified MHC/competitive/fluorescence; filed as Kd, often an IC50 or EC50 that approximates it; ≥ and ≤ were set here for values at or beyond the usual limits of such assays; conditions: source organism: Mycobacterium tuberculosis variant bovis BCG str. Pasteur 1173P2
HLA-A*02:01 [15] = assay: as above; conditions: source organism: Mycobacterium tuberculosis variant bovis BCG str. Pasteur 1173P2
HLA-A*02:03 [16] = assay: as above; conditions: source organism: Mycobacterium tuberculosis variant bovis BCG str. Pasteur 1173P2
HLA-A*02:06 = assay: as above; conditions: source organism: Mycobacterium tuberculosis variant bovis BCG str. Pasteur 1173P2
HLA-A*03:01 [17] = assay: as above; conditions: source organism: Mycobacterium tuberculosis variant bovis BCG str. Pasteur 1173P2
HLA-A*11:01 [18] = assay: as above; conditions: source organism: Mycobacterium tuberculosis variant bovis BCG str. Pasteur 1173P2
HLA-A*30:01 = assay: as above; conditions: source organism: Mycobacterium tuberculosis variant bovis BCG str. Pasteur 1173P2
HLA-A*31:01 [19] = assay: as above; conditions: source organism: Mycobacterium tuberculosis variant bovis BCG str. Pasteur 1173P2
HLA-A*69:01 [20] = assay: as above; conditions: source organism: Mycobacterium tuberculosis variant bovis BCG str. Pasteur 1173P2
HLA-B*15:01 [21] = assay: as above; conditions: source organism: Mycobacterium tuberculosis variant bovis BCG str. Pasteur 1173P2
HLA-B*15:09 = assay: as above; conditions: source organism: Mycobacterium tuberculosis variant bovis BCG str. Pasteur 1173P2
HLA-B*15:17 = assay: as above; conditions: source organism: Mycobacterium tuberculosis variant bovis BCG str. Pasteur 1173P2
HLA-B*15:42 = assay: as above; conditions: source organism: Mycobacterium tuberculosis variant bovis BCG str. Pasteur 1173P2
HLA-B*18:01 = assay: as above; conditions: source organism: Mycobacterium tuberculosis variant bovis BCG str. Pasteur 1173P2
HLA-B*27:05 [22] = assay: as above; conditions: source organism: Mycobacterium tuberculosis variant bovis BCG str. Pasteur 1173P2
HLA-B*35:01 = assay: as above; conditions: source organism: Mycobacterium tuberculosis variant bovis BCG str. Pasteur 1173P2
HLA-B*39:01 = assay: as above; conditions: source organism: Mycobacterium tuberculosis variant bovis BCG str. Pasteur 1173P2
HLA-B*40:01 [23] = assay: as above; conditions: source organism: Mycobacterium tuberculosis variant bovis BCG str. Pasteur 1173P2
HLA-B*45:06 = assay: as above; conditions: source organism: Mycobacterium tuberculosis variant bovis BCG str. Pasteur 1173P2
HLA-B*46:01 = assay: as above; conditions: source organism: Mycobacterium tuberculosis variant bovis BCG str. Pasteur 1173P2
HLA-B*48:01 = assay: as above; conditions: source organism: Mycobacterium tuberculosis variant bovis BCG str. Pasteur 1173P2
HLA-B*51:01 = assay: as above; conditions: source organism: Mycobacterium tuberculosis variant bovis BCG str. Pasteur 1173P2
HLA-B*57:01 = assay: as above; conditions: source organism: Mycobacterium tuberculosis variant bovis BCG str. Pasteur 1173P2
HLA-B*58:01 [24] = assay: as above; conditions: source organism: Mycobacterium tuberculosis variant bovis BCG str. Pasteur 1173P2
HLA-B*83:01 = assay: as above; conditions: source organism: Mycobacterium tuberculosis variant bovis BCG str. Pasteur 1173P2
HLA-B*52:01 = assay: IEDB peptide-MHC binding, purified MHC/competitive/radioactivity; filed as Kd, often an IC50 or EC50 that approximates it; ≥ and ≤ were set here for values at or beyond the usual limits of such assays; conditions: source organism: Homo sapiens

For FLMDFIHQV, the IC50 (HLA-A*02:01 [1]) was 0.24 µM.

In the case of GSAAICGKY, the IC50 (HLA-B*27:05 [2]) is reported as 4.82 µM.

In the case of GSFSRFYSL, the IC50 (HLA-B*40:02) is reported as 0.3 µM.

In the case of KLYERNTAF, the Kd (HLA-A*01:01 [3]) is reported as no less than 20 µM, the Kd (HLA-A*02:01 [4]) is reported as 0.286 µM and the Kd (HLA-A*02:03 [5]) is reported as 0.027 µM. The Kd (HLA-A*02:11) was 0.009 µM, the Kd (HLA-A*02:12) was 0.088 µM and the Kd (HLA-A*02:19) was no less than 5 µM. For the same sequence, the Kd (HLA-A*03:01 [6]) was 0.511 µM, the Kd (HLA-A*11:01 [7]) was 3.99 µM and the Kd (HLA-A*26:01) was no less than 20 µM. It also gave a Kd (HLA-A*31:01 [8]) of 0.138 µM, a Kd (HLA-A*69:01 [9]) of no less than 20 µM and a Kd (HLA-B*07:02) of no less than 20 µM. For the same sequence, the Kd (HLA-B*08:01) was 0.112 µM, the Kd (HLA-B*15:01 [10]) was 0.0578 µM and the Kd (HLA-B*27:05 [11]) was 0.325 µM. It also gave a Kd (HLA-B*40:01 [12]) of no less than 20 µM, a Kd (HLA-B*44:02) of no less than 20 µM and a Kd (HLA-B*58:01 [13]) of 0.284 µM. For the same sequence, the Kd (HLA-C*12:03) was 0.266 µM.

Work on KPIPHRTVL yielded a Kd (HLA-A*01:01 [14]) of 0.57 µM, a Kd (HLA-A*02:01 [15]) of no less than 20 µM and a Kd (HLA-A*02:03 [16]) of no less than 20 µM. For the same sequence, the Kd (HLA-A*02:06) was 2.83 µM, the Kd (HLA-A*03:01 [17]) was 2.29 µM and the Kd (HLA-A*11:01 [18]) was 0.125 µM. For the same sequence, the Kd (HLA-A*30:01) was 0.763 µM, the Kd (HLA-A*31:01 [19]) was no less than 20 µM and the Kd (HLA-A*69:01 [20]) was no less than 20 µM. The Kd (HLA-B*15:01 [21]) was no less than 20 µM, the Kd (HLA-B*15:09) was 1.32 µM and the Kd (HLA-B*15:17) was no less than 20 µM. The Kd (HLA-B*15:42) was no less than 5 µM, the Kd (HLA-B*18:01) was no less than 20 µM and the Kd (HLA-B*27:05 [22]) was no less than 20 µM. The Kd (HLA-B*35:01) was 0.623 µM, the Kd (HLA-B*39:01) was 0.0188 µM and the Kd (HLA-B*40:01 [23]) was no less than 20 µM. It also gave a Kd (HLA-B*45:06) of no less than 5 µM, a Kd (HLA-B*46:01) of no less than 20 µM and a Kd (HLA-B*48:01) of no less than 20 µM. The Kd (HLA-B*51:01) was no less than 20 µM, the Kd (HLA-B*57:01) was no less than 20 µM and the Kd (HLA-B*58:01 [24]) was no less than 20 µM. It also gave a Kd (HLA-B*83:01) of 0.762 µM.

QQITQTEV showed a Kd (HLA-B*52:01) of no less than 30.2 µM.
